These results are taken from patent publication US5612040.

In the assay the target is baby hamster kidney (BHK) cells. In words: cell binding to BHK cells at a constant virus/cell ratio (1000:1).

“foot-and-mouth disease virus (FMDV) type A12, wild-type virus (VRGDF at amino acids 143-147 of VP1)”: the Cell Binding, % worked out at 65%.
